Experimental data published in publication doi:10.1101/2024.04.26.591336.

Molecular target: NOTCH2^ΔERA-TurboID (human)
Test: proximity labelling

## endogenous human NOTCH2 (from UniProt Q04721 26-2471) (natural protein)
  Log2FC NICD2RA-vs-NICD2: -2.03 Log2FC
  percent of the NOTCH2 recovered, NICD2RA against NICD2: 13%
